From PMC3481325

Biological target: HLA A*0201 (soluble, the MHC part of the HLA A*0201-peptide complexes)
Assay: SPR

t½ of the HLA A*0201-peptide complex: 8 h
Substance: […] peptide (Melan A 26-35)
